Measurements: patent publication US20230203172A1 (SHANGHAI MABGEEK BIOTECH, published 2023)
Where a chain is given by its changes, count along the chain named.

B1: humanized anti-hIL-4R alpha monoclonal antibody 131-Hu (antibody, human IgG4 S228P, kappa, V domains shown)
VH: EVQLVESGGGLVQPGGSLRLSCAASGFTFSDYGMHWVRQAPGKGLEWVSYISSGSSTIYYADTVKGRFTISRDNAKNSLYLQMNSLRAEDTAVYYCARISTVVAKRYAMDYWGQGTLVTVSS
VL: DIQMTQSPSSLSASVGDRVTITCRASQDISNYLNWYQQKPGKAPKLLIYYTSRLHSGVPSRFSGSGSGTDFTLTISSLQPEDIATYYCQEVNMLPFTFGQGTKVEIKR
notes: Humanized, human IgG4 constant region; expressed in HEK293, purified on ProteinA
B2: humanized anti-hIL-4R alpha monoclonal antibody 136-Hu (antibody, human IgG4 S228P, kappa, V domains shown)
VH: B1 VH with S56T
VL: B1 VL with E90Q, V91I, M93A, V104L
notes: as for B1
B3: humanized anti-hIL-4R alpha monoclonal antibody 59-Hu (antibody, human IgG4 S228P, kappa, V domains shown)
VH: EVQLVESGGGLVQPGGSLRLSCAASGFTFSDYGIHWVRQAPGKGLEWVSYIRSDSSIIHYADTVKGRFTISRDNAKNSLYLQMNSLRAEDTAVYYCARGRDRGYFDYWGQGTLVTVSS
VL: EIVLTQSPATLSLSPGERATLSCSASSSVSYMYWYQQKPGQAPRPWIYLTSNLASGVPARFSGSGSGTDFTLTISSLEPEDFAVYYCQQWTSIPFTFGQGTKVEIKR
notes: as for B1
B4: humanized anti-hIL-4R alpha monoclonal antibody 236-Hu (antibody, human IgG4 S228P, kappa, V domains shown)
VH: QVQLVQSGAEVKKPGASVKVSCKASGYTFTDYNVDWVRQAPGQGLEWIGTINPNNGGILSNQKFKGRVTITVDTSASTAYMELSSLRSEDTAVYYCGRGGLRRRGFMDYWGQGTLVTVSS
VL: B3 VL with S24R, S30I, M32I, Y33H, L49A, T50A, A54P, T91S, I93N, F95P
notes: as for B1

These binders were tested against human IL-4R alpha on cells (TF-1 cells; human peripheral blood mononuclear cells) (human, UniProt P24394 26-825) (assay: cell-based or functional assay).

Point of comparison: B1, “IC50 (ng/ml), inhibition of IL-4-induced TF-1 cell proliferation” value 90.6 ng/mL. Against it:
- B2 — within 1.5-fold, 84.3 ng/mL
- B3 — 3.3-fold higher, 296 ng/mL
- B4 — 1.7-fold lower, 54.6 ng/mL

The binders below were run against T1, hIL-4R alpha-ECD-Flag (human, UniProt P24394 26-232) (assay: SPR, Biacore T200, antibody captured on Protein-A chip, hIL-4R alpha-ECD-Flag as analyte).
T1 construct: range 26-232; Analyte of the Biacore experiment
Procedure: The affinity of six purified humanized antibodies was detected by Biacore T200 (GE healthcare), with the reference antibody Dupilumab as a control. The specific experimental method was as follows: a Protein-A CMS sensor chip (GE healthcare) was used, with FC1 (Flow cell 1) as a reference channel, and FC2 (Flow cell 2) as a sample channel. Humanized antibodies or control antibody were captured in the FC2 channel, and then hIL-4R alpha-ECD-Flag at different concentrations was injected. Cycling conditions were as follows: an analyte was injected into all channels of FCs at 50 μl/min for 4 min, with a dissociation time of 20 min, and 6M guanidine hydrochloride (Sinopharm Chemical Reagent Co., Ltd.) was injected at a rate of 10 μl/min for 30 s for surface regeneration. Then, signal differences and affinity for interaction between captured antibodies and non-captured antibodies were calculated by Biacore T200 Evaluation Software Ver 1.0.

Point of comparison: B1, Kd 0.33 nM. Against it:
- B2 — 2.1-fold lower, 0.154 nM
- B3 — within 1.5-fold, 0.25 nM
- B4 — 1.9-fold lower, 0.173 nM

Point of comparison: B4, koff 0.000255 s⁻¹. Against it:
- B1 — 2.3-fold lower, 0.000111 s⁻¹
- B2 — 2.6-fold lower, 9.8e-05 s⁻¹
- B3 — within 1.5-fold, 0.000284 s⁻¹

Point of comparison: B4, kon 1.48e+06 M⁻¹ s⁻¹. Against it:
- B1 — 4.4-fold lower, 335000 M⁻¹ s⁻¹
- B2 — 2.3-fold lower, 635000 M⁻¹ s⁻¹
- B3 — within 1.5-fold, 1.14e+06 M⁻¹ s⁻¹
